Measurements: IntAct's records for PubMed 27135603

B1: Inducible T-cell costimulator (Homo sapiens), Q9Y6W8 (parent)
chain: MKSGLWYFFLFCLRIKVLTGEINGSANYEMFIFHNGGVQILCKYPDIVQQFKMQLLKGGQILCDLTKTKGSGNTVSIKSLKFCHSQLSNNSVSFFLYNLDHSHANYYFCNLSIFDPPPFKVTLTGGYLHIYESQLCCQLKFWLPIGCAAFVVVCILGCILICWLTKKKYSSSVHDPNGEYMFMRAVNTAKKSRLTDVTL
B2: Inducible T-cell costimulator (Homo sapiens), Q9Y6W8 (parent)
chain: B1 chain
partner: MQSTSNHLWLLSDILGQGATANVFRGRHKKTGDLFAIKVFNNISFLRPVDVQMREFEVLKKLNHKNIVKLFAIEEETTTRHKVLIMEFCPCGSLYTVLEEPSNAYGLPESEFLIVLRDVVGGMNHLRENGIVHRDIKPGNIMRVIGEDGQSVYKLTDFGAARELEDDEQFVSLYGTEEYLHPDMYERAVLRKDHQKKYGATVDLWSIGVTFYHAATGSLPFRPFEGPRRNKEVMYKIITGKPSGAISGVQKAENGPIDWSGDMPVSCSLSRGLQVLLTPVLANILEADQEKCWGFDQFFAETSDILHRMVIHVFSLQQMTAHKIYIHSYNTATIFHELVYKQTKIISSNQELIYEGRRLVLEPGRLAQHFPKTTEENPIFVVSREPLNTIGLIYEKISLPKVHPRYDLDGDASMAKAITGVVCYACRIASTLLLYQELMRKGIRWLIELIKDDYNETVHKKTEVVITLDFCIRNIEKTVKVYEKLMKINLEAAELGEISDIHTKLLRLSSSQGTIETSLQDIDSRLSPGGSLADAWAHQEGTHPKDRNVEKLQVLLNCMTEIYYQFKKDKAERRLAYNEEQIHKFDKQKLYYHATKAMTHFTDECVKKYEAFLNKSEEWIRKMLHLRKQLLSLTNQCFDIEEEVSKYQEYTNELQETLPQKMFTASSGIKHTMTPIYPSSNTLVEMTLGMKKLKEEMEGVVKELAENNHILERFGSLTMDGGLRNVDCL
B3: TNF receptor-associated factor 2 (Homo sapiens), Q12933 (parent)
chain: MAAASVTPPGSLELLQPGFSKTLLGTKLEAKYLCSACRNVLRRPFQAQCGHRYCSFCLASILSSGPQNCAACVHEGIYEEGISILESSSAFPDNAARREVESLPAVCPSDGCTWKGTLKEYESCHEGRCPLMLTECPACKGLVRLGEKERHLEHECPERSLSCRHCRAPCCGADVKAHHEVCPKFPLTCDGCGKKKIPREKFQDHVKTCGKCRVPCRFHAIGCLETVEGEKQQEHEVQWLREHLAMLLSSVLEAKPLLGDQSHAGSELLQRCESLEKKTATFENIVCVLNREVERVAMTAEACSRQHRLDQDKIEALSSKVQQLERSIGLKDLAMADLEQKVLEMEASTYDGVFIWKISDFARKRQEAVAGRIPAIFSPAFYTSRYGYKMCLRIYLNGDGTGRGTHLSLFFVVMKGPNDALLRWPFNQKVTLMLLDQNNREHVIDAFRPDVTSSSFQRPVNDMNIASGCPLFCPVSKMEAKNSYVRDDAIFIKAIVDLTGL
partner: B2 partner
B4: TNF receptor-associated factor 3 (Homo sapiens), Q13114 (parent)
chain: MESSKKMDSPGALQTNPPLKLHTDRSAGTPVFVPEQGGYKEKFVKTVEDKYKCEKCHLVLCSPKQTECGHRFCESCMAALLSSSSPKCTACQESIVKDKVFKDNCCKREILALQIYCRNESRGCAEQLMLGHLLVHLKNDCHFEELPCVRPDCKEKVLRKDLRDHVEKACKYREATCSHCKSQVPMIALQKHEDTDCPCVVVSCPHKCSVQTLLRSELSAHLSECVNAPSTCSFKRYGCVFQGTNQQIKAHEASSAVQHVNLLKEWSNSLEKKVSLLQNESVEKNKSIQSLHNQICSFEIEIERQKEMLRNNESKILHLQRVIDSQAEKLKELDKEIRPFRQNWEEADSMKSSVESLQNRVTELESVDKSAGQVARNTGLLESQLSRHDQMLSVHDIRLADMDLRFQVLETASYNGVLIWKIRDYKRRKQEAVMGKTLSLYSQPFYTGYFGYKMCARVYLNGDGMGKGTHLSLFFVIMRGEYDALLPWPFKQKVTLMLMDQGSSRRHLGDAFKPDPNSSSFKKPTGEMNIASGCPVFVAQTVLENGTYIKDDTIFIKVIVDTSDLPDP
partner: B2 partner

Variants of: B1
Conditions: with p85a_human PIK3R1, P27986
p85a_human PIK3R1, P27986, sequence (P27986 whole entry): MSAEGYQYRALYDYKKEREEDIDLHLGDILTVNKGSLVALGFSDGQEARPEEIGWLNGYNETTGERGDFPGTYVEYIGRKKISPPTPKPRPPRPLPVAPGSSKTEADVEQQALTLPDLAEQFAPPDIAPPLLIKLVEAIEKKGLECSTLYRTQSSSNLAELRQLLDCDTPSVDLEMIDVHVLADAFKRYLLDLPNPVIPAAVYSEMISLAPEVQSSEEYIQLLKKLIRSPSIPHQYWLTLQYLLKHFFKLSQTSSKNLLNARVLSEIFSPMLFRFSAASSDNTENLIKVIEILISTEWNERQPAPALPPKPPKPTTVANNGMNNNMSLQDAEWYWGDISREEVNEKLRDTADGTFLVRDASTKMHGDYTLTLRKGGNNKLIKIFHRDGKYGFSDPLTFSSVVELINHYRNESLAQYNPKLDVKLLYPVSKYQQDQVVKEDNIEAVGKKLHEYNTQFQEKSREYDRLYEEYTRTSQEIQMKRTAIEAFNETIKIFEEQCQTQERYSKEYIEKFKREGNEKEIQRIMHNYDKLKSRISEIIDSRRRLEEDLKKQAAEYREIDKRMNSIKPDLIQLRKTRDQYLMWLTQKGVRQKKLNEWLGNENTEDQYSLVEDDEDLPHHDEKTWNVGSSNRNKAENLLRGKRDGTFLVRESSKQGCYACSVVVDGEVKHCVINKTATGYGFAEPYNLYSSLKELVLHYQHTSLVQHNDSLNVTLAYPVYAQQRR
MKSGLWYFFLFCLRIKVLTGEINGSANYEMFIFHNGGVQILCKYPDIVQQFKMQLLKGGQILCDLTKTKGSGNTVSIKSLKFCHSQLSNNSVSFFLYNLDHSHANYYFCNLSIFDPPPFKVTLTGGYLHIYESQLCCQLKFWLPIGCAAFVVVCILGCILICWLTKKKYAAAAAAAAAAYMFMRAVNTAKKSRLTDVTL [S170A;S171A;S172A;V173A;H174A;D175A;P176A;N177A;G178A;E179A] was tested, and the “effect of a mutation on the interaction” value was “with no effect”.

Variants of: B1
Conditions: with p85a_human PIK3R1, P27986
Remark: another data set of the same source
In the case of MKSGLWYFFLFCLRIKVLTGEINGSANYEMFIFHNGGVQILCKYPDIVQQFKMQLLKGGQILCDLTKTKGSGNTVSIKSLKFCHSQLSNNSVSFFLYNLDHSHANYYFCNLSIFDPPPFKVTLTGGYLHIYESQLCCQLKFWLPIGCAAFVVVCILGCILICWLTKKKYSSSVHDPNGEFMFMRAVNTAKKSRLTDVTL [Y180F], the “effect of a mutation on the interaction” value is reported as “disrupting interaction strength”.

Variants of: B2
Conditions: with tbk1_human TBK1, Q9UHD2
For MKSGLWYFFLFCLRIKVLTGEINGSANYEMFIFHNGGVQILCKYPDIVQQFKMQLLKGGQILCDLTKTKGSGNTVSIKSLKFCHSQLSNNSVSFFLYNLDHSHANYYFCNLSIFDPPPFKVTLTGGYLHIYESQLCCQLKFWLPIGCAAFVVVCILGCILICWLTKKKYAAAAAAAAAAYMFMRAVNTAKKSRLTDVTL [S170A;S171A;S172A;V173A;H174A;D175A;P176A;N177A;G178A;E179A], the “effect of a mutation on the interaction” value was “decreasing interaction strength”.

Variants of: B2
Conditions: with tbk1_human TBK1, Q9UHD2
Remark: another data set of the same source
In the case of MKSGLWYFFLFCLRIKVLTGEINGSANYEMFIFHNGGVQILCKYPDIVQQFKMQLLKGGQILCDLTKTKGSGNTVSIKSLKFCHSQLSNNSVSFFLYNLDHSHANYYFCNLSIFDPPPFKVTLTGGYLHIYESQLCCQLKFWLPIGCAAFVVVCILGCILICWLTKKKYSSSVHDPNGEFMFMRAVNTAKKSRLTDVTL [Y180F], the “effect of a mutation on the interaction” value is reported as “with no effect”.

Variants of: B3
Conditions: with tbk1_human TBK1, Q9UHD2
In the case of MAAASVTPPGSLELLQPGFSKTLLGTKLEAKYLCSACRNVLRRPFQAQCGHRYCSFCLASILSSGPQNCAACVHEGIYEEGISILESSSAFPDNAARREVESLPAVCPSDGCTWKGTLKEYESCHEGRCPLMLTECPACKGLVRLGEKERHLEHECPERSLSCRHCRAPCCGADVKAHHEVCPKFPLTCDGCGKKKIPREKFQDHVKTCGKCRVPCRFHAIGCLETVEGEKQQEHEVQWLREHLAMLLSSVLEAKPLLGDQSHAGSELLQRCESLEKKTATFENIVCVLNREVERVAMTAEACSRQHRLDQDKIEALSSKVQQLERSIGLKDLAMADLEQKVLEMEASTYDGVFIWKISDFARKRQEAVAGRIPAIFSPAFYTSRYGYKMCLRIYLNGDGTGRGTHLSLFFVVMKGPNDALLRWPFNQKVTLMLLDQNNREHVIDAFRPDVTAAAAAAAAAAMNIASGCPLFCPVSKMEAKNSYVRDDAIFIKAIVDLTGL [S453A;S454A;S455A;F456A;Q457A;R458A;P459A;V460A;N461A;D462A], the “effect of a mutation on the interaction” value is reported as “disrupting interaction strength”.

Variants of: B4
Conditions: with tbk1_human TBK1, Q9UHD2
MESSKKMDSPGALQTNPPLKLHTDRSAGTPVFVPEQGGYKEKFVKTVEDKYKCEKCHLVLCSPKQTECGHRFCESCMAALLSSSSPKCTACQESIVKDKVFKDNCCKREILALQIYCRNESRGCAEQLMLGHLLVHLKNDCHFEELPCVRPDCKEKVLRKDLRDHVEKACKYREATCSHCKSQVPMIALQKHEDTDCPCVVVSCPHKCSVQTLLRSELSAHLSECVNAPSTCSFKRYGCVFQGTNQQIKAHEASSAVQHVNLLKEWSNSLEKKVSLLQNESVEKNKSIQSLHNQICSFEIEIERQKEMLRNNESKILHLQRVIDSQAEKLKELDKEIRPFRQNWEEADSMKSSVESLQNRVTELESVDKSAGQVARNTGLLESQLSRHDQMLSVHDIRLADMDLRFQVLETASYNGVLIWKIRDYKRRKQEAVMGKTLSLYSQPFYTGYFGYKMCARVYLNGDGMGKGTHLSLFFVIMRGEYDALLPWPFKQKVTLMLMDQGSSRRHLGDAFKPDPNAAAAAAAAAAMNIASGCPVFVAQTVLENGTYIKDDTIFIKVIVDTSDLPDP [S518A;S519A;S520A;F521A;K522A;K523A;P524A;T525A;G526A;E527A] was tested, and the “effect of a mutation on the interaction” value was “decreasing interaction strength”.
